These results are taken from patent US20120076796A1 (Ablynx, published 2012).

The target of experiment [1] is T1, recombinant human Tie2/Fc Chimera (R&D Systems Cat No 313-TI, Lot No BKC06) (human, UniProt Q02763 23-745).
T1 construct: Bought reagent; also called receptor; not shown: Fc portion of the bought chimera
As to the kind of experiment: phage ELISA: 10 ul monoclonal phage supernatant in 100 ul on 0.2 ug/ml coated Tie2/Fc, anti-M13-HRP, OD 450 nm. The protocol:
In order to determine binding specificity to Tie2, the clones are tested in an ELISA binding assay setup, using the monoclonal phage pools. Phage binding to Tie2/Fc Chimera (R&D Systems Cat No 313-TI, Lot No BKC06) is tested. Shortly, 0.2 ug/ml receptor is immobilized on Maxisorp ELISA plates (Nunc) and free binding sites are blocked using 4% Marvel skimmed milk in PBS. Next, 10 ul of supernatant from the monoclonal phage inductions of the different clones in 100 ul 2% Marvel PBS are allowed to bind to the immobilized antigen. […] Binding specificity is determined based on OD values compared to controls having received no phage and to controls where in a similar ELISA binding assay the same monoclonal phage are tested for binding to 0.2 ug/ml of immobilized human IgG and 0.2 ug/ml of rh B7.2/Fc.
A general note: An ELISA detects its analyte on a solid surface through an enzyme-linked reagent.

The target of experiment [2] is T2, Recombinant human Angiopoietin-2 (R&D Systems Cat No 623-AN/CF) (human, UniProt O15123 19-496, limits assumed).
T2 construct: Bought reagent; also called Ang2; human Ang2
T2 sequence (looked up): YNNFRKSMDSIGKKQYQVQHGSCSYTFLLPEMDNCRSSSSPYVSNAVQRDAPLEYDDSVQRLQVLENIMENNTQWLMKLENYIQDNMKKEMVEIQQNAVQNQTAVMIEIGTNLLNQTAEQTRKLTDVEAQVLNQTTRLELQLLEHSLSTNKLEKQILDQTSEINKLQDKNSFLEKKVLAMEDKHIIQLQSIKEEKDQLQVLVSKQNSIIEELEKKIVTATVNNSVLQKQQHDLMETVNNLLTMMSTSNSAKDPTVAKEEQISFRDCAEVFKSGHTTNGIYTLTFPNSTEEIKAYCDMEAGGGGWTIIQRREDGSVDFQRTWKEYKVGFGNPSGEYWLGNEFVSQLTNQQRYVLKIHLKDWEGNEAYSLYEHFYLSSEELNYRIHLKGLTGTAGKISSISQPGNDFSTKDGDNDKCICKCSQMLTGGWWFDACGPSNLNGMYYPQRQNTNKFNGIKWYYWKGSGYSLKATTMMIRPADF
The experiment is described as follows: listed in the alignment of Ang2 binding Nanobodies; assay not told for this clone.

T1 sequence (Q02763 23-745, change not shown): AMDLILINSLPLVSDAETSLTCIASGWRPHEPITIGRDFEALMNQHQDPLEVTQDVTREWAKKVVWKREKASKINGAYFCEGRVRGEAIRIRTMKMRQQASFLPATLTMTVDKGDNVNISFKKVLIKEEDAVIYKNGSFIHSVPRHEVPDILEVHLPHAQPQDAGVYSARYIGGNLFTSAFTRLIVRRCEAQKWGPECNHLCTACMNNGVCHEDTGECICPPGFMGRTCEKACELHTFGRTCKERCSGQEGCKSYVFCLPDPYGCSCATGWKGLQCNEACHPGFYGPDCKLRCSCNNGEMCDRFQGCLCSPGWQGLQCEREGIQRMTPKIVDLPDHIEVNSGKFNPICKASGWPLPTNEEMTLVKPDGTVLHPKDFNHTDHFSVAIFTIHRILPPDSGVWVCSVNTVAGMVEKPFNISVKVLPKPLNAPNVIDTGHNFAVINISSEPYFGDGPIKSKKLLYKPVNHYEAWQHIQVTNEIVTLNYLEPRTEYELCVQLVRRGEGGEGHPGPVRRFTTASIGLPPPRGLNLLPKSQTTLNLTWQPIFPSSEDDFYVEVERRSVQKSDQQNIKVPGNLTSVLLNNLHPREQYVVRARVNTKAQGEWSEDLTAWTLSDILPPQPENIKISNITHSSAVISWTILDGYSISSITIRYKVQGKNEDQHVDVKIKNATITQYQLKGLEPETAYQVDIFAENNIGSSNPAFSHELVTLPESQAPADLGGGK

B1: 162-F3 (VHH)
VHH: EVQLVESGGGLVQAGDSLRLSCTTSGRTFSDDTMGWFRQAPRKEREFVAAILWDSIKTYYADSVKGRFTISRDNAKNTVYLQMDSLKPEDTAVYYCAATPTAYGTDWYRNNYHYWGQGTQVTVSS
notes: Nanobody
B1: the binding result in experiment [1] is listed as “binds”.

B2: 166-H5 (VHH)
VHH: EVQLVESGGGLVQAGGSLSLACVVSGRFSRINSMAWSRQVPGNARELVASVTSGGYTNYVDSVKGRFTISRDNAKNAIYLQMNSLKSEDTAVYYCNARVVVRTAHGFEDNYWGQGTQVTVSS
With B2, in experiment [2], the binding result is listed as “binds”.
